# Numbering of substitutions follows the chain as printed.
# T1: HeV-G
# T1 chain: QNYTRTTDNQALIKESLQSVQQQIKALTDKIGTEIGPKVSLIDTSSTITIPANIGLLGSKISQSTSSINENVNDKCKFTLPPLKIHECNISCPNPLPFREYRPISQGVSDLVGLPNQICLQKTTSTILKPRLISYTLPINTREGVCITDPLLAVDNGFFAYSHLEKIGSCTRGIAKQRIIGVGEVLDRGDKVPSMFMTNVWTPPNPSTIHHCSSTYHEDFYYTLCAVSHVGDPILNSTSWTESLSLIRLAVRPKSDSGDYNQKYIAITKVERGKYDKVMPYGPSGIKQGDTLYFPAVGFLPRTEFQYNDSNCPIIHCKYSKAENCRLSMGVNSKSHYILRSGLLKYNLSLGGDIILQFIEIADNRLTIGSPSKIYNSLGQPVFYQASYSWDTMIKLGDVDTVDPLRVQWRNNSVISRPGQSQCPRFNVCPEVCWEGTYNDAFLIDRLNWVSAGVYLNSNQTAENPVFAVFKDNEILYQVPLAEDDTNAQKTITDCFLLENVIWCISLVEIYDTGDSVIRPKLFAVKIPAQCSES
# T2: NiVM-G
# T2 chain: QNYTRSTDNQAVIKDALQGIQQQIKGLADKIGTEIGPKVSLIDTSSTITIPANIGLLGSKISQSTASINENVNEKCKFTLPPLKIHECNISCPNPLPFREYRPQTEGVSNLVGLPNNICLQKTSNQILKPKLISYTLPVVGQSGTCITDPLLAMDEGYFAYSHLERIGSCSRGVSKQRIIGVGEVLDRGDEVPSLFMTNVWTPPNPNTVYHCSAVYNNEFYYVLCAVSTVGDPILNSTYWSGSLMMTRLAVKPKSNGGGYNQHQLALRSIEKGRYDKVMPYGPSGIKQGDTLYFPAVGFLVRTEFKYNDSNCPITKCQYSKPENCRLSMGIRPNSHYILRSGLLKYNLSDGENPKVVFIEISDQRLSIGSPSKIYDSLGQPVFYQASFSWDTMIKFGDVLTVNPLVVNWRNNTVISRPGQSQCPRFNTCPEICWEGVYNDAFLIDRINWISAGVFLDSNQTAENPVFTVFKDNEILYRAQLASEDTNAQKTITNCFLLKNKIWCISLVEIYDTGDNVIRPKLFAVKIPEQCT
# B1: HENV-170 (antibody, V domains shown)
# VH: EVQLLESGGGLVQPGGSLRLSCAASGFTFSSYTMSWVRQAPGKGLEWVSGISGSGGNTYYAGSVKGRFTISRDNSKNTLYLQMNSLRAEDTAVYYCAKDGYTGQQLMRRGPWWFDPWGQGTLVTVSS
# VL: SYVLTQPPSVSVAPGQTARITCGGNNIGSKSVHWYQQKPGQAPVLVVYDDSDRPSGIPERFSGSKSGNTATLTISRVEAGDEADYYCQVWDSSSDHVVFGGGTKLTVL
# B2: HENV-150 (antibody, V domains shown)
# VH: EVQLLESGGGLVQPGGSLRLSCAASGFTFSSSAMSWVRQTPGKGLEWVSTISGSGANTYYAASVKGRFPISRDNSKNTLFLQMNSLRAEDTAVYYCAKVSTVTFGGHVPRGSYFDYWGQGTQVTVSS
# VL: B1 VL with T21P, D50E, S51N, G63A, S93R, V97Y, G101T, L105V
# B3: HENV-184 (antibody, V domains shown)
# VH: QVQLVQSGTEVKNPGSSVKVSCKASGGTFSGFGISWVRQAPGQGLEWMGGVLPIFGSPNYAQKFQGRVTITADESTGTAYMDLSSLRSDDTAMYYCARDQSGGFFDYWGQGTLVIVSS
# VL: EIVLTQSPATLSLSPGERATLSCRASQSVSSNLAWYQQKPGQAPRLLIYDASDRATGVPARFSGSGSGTDFTLTISSLEPEDFALYYCQQRYNWRVTFGQGTRLEIK
# B4: HENV-222 (antibody, V domains shown)
# VH: QVQLQESGPGLVKPSETLSLTCTVSGGSIDSYYWSWIRQPAGKGLEWIGRIYPSGTTNYNPSLKSRVTMSVDTSKNQFSLKVTSVTAADTAVYYCARMQTGFGSSLFFVPYFDNWGQGTLVTVSS
# VL: B3 VL with N32Y, D53N, V58I, L85V, Y92G, R95P, V96L, Q100G, R103K, L104V
# B5: HENV-103 (antibody, V domains shown)
# VH: QVQLQGSGPGLVKPSQTLSLTCSVSGGSVSRSGYYWGWIRQHPGKGLECIGYIYYSGITYYNPSLSGRLTISVDTSKNQFSLELSSVTAADTAVYYCARVWLGGGVFDFWGQGSLVTVSS
# VL: EIVMTQSPATLSVSPGEGATLSCRASQSVSSNLAWYQQKPGQAPRLLIYDASTRATGIPARFSGSGSGTEFTLTISSLQSEDFAVYYCQQYNDWRTFGRGTKVEMR
# B6: HENV-242 (antibody, V domains shown)
# VH: QVQLVQSGAEVKKPGSSVTVSCKTSGGTFSGYAVSWVRQAPGQGLEWMGRIVPQFNIPNYAQKFQDRVTITADESTGTSYMELSSLRSDDTAVFYCARENIQTIFGVVAMMGGGGYFDSWGQGTLVTVSS
# VL: DIQMTQSPSSLSASVGDRVTITCQANQDINTYLNWYLQKPGKAPQLLVFDASNLVTGVPSRFSGGGSRTDFTLTIDSLQPEDIGTYYCQQYDHLPRRTFTFGPGTKVDLK
# B7: HENV-122 (antibody, V domains shown)
# VH: EVQLLESGGGLVQPGGSLRLSCAASGFTFSTNAMSWVRQAPGKGLEWVSTVSGSGAHPNYGDSVKGRFTISRVNSKNTLFLQMSSLRAEDTAIYYCARVSTVTVGGHIPRGYYFDYWGQGTLVTVSS
# VL: EILLTQSPGTLSLSPGERATLSCRASQSASSSYLAWYQQKPGQAPRLLIYGASTRATGIPDRFSGSGSGTEFTLTISRLESEDFAVYYCHHYGSSRTFGQGTKVEVK
# B8: HENV-98 (antibody, V domains shown)
# VH: AVQLVESGGGLVQPGGSLRLSCEASGFTFSGYWMSWVRQAPGKGLEWVANIKGDGSEKYYVDSVKGRFTIFRDNAKTSLYLQVNSLRAEDTAVYYCARERHFLAARPGYYIYSGLDVWGPGTTVTVSS
# VL: DIQMTQSPSSLSASVGDRVTITCRASQSIDNYLNWYQQKPGKVPKLLIYAASNLQSGVPSKFSGGGSGTDFTLTISSLQPDDFATYYCQQSFGTPRTFGQGTRVEIK
# B9: HENV-117 (antibody, V domains shown)
# VH: QVQLQQWGAGLLKPSETLSLTCDLSGGSFTNYYWTWIRHLPGKGLEWLGEINHSGRTNYSPSLKSRVTISVDTSKNQFSLRLSSVTAADTAVYYCARDIRKLAPKPHSYDLYYGMDVWGQGTTVTVSS
# VL: EIVLTQSPGTLSLSPGERATLSCRASQSVGSNYLTWYQQKPGQPPRLLIYGASNRAAGIPDRFSGSGSGTDFTLTISRLEPEDFAVYYCQQYETSSRTFGQGTKVDIR
# B10: HENV-58 (antibody, V domains shown)
# VH: QVQLVQSGAEVKKPGSSVKVSCKASGGTFSNYVISWVRQAPGQGFEWMGRIIPMIGISNYAQKFQDRVTITADKDESTTTAYMELRGLRSEDTAMYYCASSTVTEVGAWGQGTLVTVSS
# VL: AIQLTQSPSSLSASIGDRVTITCRASQGISSALAWFQQKPGKPPILLIYDASSLESGVPARFSGSGSGTDFTLTISSLQPEDFATYYCQQFYNHPLTFGPGTKVDIK
# B11: HENV-141 (antibody, V domains shown)
# VH: QVQLVQSGAEVKKPGSSVKVSCKASGGTFSSYTISWVRQAPGQGLEWMGRIIPISGITNYAQKFQGRVTITADKSTSTAYMELSSLRSEDTAVYYCAKDCYYGSGTYYGCRADYQWHHTMDVWGQGTTVTVSS
# VL: DIQMTQSPSSLSASVGDRVTITCRASQGIRNDLGWFQQKPGKAPKRLIYAASSLQSGVPSRFSGSGSGTEFTLTISSLQPEDFATYFCLQHNTYPLTFGQGTKVEIK
# B12: HENV-142 (antibody, V domains shown)
# VH: QVRLQESGPRLVKPSQTLSLTCTVSGGSISSRDYYWSWIRQHPGKGLEWIGYIYYSGTTYYNPSLESRVTLSLDTSKNQFSLDLTSVTAADTAVYHCARVWLGGGVFDFWGQGTLVTVSA
# VL: EIVMTQSPDTLSVSPGERATLSCRASHSVTTNLAWYQQRPGQAPRLLIFDASTRATGIPARFSGSGSGTEFTLTIGSLQSEDFAVYYCQQYNDGRTFGQGTKVEIK
# B13: HENV-100 (antibody, V domains shown)
# VH: QVQLVQSGAEVKKPGASVKVSCKASGYTFTSYYINWVRQAPGQGLEWVGTINPSGGSTTYAQKFQGRVTVTRDTSTSTVYMDLSGLRSGDTAVYYCARDRKGLAATPVYSDYYYGMDVWGQGTTVTVSS
# VL: EIVLTQSPATLSLSPGERATLSCRASQSVSSFLAWYQQKPGQAPRLLISDASKRATGIPARFSGSGSGTDFSLTISSLEAEDFAVYYCQQSTNWRITFGQGTRLELK
# B14: HENV-99 (antibody, V domains shown)
# VH: QVLLVQSGAEVRKPGASVKVSCRASGYTFTDYYMHWVRQAPGQGLEWMGWINPNSGATKYAQKFQGRVTLTRDTSINTAYMELSGLRSVDTAVFYCASVPPSGFFYWGSDYWGQGTLVTVSS
# VL: DVVLTQSPLSLPVTLGQPASISCRSSQSLVYSDGTTYLNWFQQRPGQSPRRLIYKVSYRDSGVPDRFSGSGSGTDFTLEISRVEAEDVGIYYCMHGTHWETWTFGQGTKVEIK
# B15: HENV-226 (antibody, V domains shown)
# VH: EERLVQSGGGLAQPGQSLRLSCAGFGFTFTRYEMNWVRQAPGKGLEWIAHISTRGDTISYADSVKGRATISRDDTNNSLDLQMDSLRAEDTAIYFCARDRGSLSTRPPDSYHYYYHGMDVWGQGTTVIVSS
# VL: EIVLTQSPATLSLSPGERATLSCRASQSIDTYLAWYQQKPGQAPRLLIYDASNRATGIPARFSGSGSGTDFSLTISSLEPDDFAVYYCQQRSNRPPRYTFGLGTRLEIK
# Molecular target: T1, HeV-G
row,Binder,EC50 [nM]
1,B1,0.518
2,B2,0.328
3,B3,1.19
4,B4,5.66
5,B5,0.806
6,B6,6.6
7,B7,0.387
8,B8,0.434
9,B9,1.06
10,B10,1.14
11,B11,0.326
12,B12,1.86
13,B13,0.469
14,B14,0.42

# Molecular target: T2, NiVM-G
row,Binder,EC50 [nM]
1,B1,0.378
2,B2,0.27
3,B3,0.622
4,B4,0.586
5,B5,0.611
6,B6,0.716
7,B7,0.407
8,B8,0.396
9,B9,1.23
10,B10,0.739
11,B11,0.266
12,B12,1.03
13,B13,0.316
14,B14,0.294
15,B15,0.259

# — patent US12559545 (VANDERBILT UNIVERSITY, dated 2026)
